T1: recombinant mouse IL-6 (R&D Systems Cat#406-ML-010/CF) (mouse, UniProt P08505 25-211)
T1 construct: coated at 0.5 µg/ml; also called mIL-6
T1 sequence (looked up): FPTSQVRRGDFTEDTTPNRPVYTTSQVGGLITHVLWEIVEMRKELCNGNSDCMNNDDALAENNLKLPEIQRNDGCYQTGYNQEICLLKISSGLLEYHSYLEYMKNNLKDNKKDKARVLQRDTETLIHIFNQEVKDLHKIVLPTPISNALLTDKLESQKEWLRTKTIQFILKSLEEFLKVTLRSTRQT

T2: recombinant mouse IL-12 (R&D Systems Cat#419-ML-010/CF) (mouse, UniProt P43431 23-215; P43432 23-335)
T2 construct: coated at 0.5 µg/ml; also called mIL-12
T2 sequence (looked up) 1: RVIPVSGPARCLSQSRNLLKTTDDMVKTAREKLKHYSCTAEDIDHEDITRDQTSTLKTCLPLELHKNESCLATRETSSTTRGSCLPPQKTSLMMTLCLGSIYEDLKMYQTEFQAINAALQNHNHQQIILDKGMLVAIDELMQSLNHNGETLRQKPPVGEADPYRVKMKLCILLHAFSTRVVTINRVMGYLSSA
T2 sequence (looked up) 2: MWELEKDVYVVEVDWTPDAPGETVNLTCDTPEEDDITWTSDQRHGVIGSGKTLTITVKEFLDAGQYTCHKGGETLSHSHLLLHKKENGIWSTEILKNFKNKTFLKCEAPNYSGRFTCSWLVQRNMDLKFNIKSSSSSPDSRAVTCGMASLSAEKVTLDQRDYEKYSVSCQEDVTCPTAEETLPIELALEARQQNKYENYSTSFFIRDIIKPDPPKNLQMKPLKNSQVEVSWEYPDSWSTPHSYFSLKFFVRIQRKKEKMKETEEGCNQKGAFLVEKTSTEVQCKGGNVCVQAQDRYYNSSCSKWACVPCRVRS

T3: recombinant human IL-17E (R&D Systems Cat#1258-IL/CF) (human, UniProt Q9H293 33-177)
T3 construct: also called huIL-17E; hu IL-17E
T3 sequence (looked up): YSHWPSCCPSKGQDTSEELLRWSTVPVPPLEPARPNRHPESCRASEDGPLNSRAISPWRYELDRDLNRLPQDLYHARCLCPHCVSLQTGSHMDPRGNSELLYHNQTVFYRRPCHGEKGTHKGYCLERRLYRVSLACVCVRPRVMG

T4: recombinant mouse IL-17A (SEQ ID NO: 83) (mouse, UniProt Q62386 26-158)
T4 construct: also called mIL-17A; rmIL-17A
T4 sequence: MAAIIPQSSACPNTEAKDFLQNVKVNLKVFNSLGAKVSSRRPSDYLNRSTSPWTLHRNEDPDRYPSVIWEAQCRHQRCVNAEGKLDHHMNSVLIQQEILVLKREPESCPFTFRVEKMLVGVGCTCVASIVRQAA

T5: recombinant human IL-17A/F heterodimer (human, UniProt Q16552 24-155; Q96PD4 31-163, limits assumed)
T5 construct: heterodimer of an IL-17A subunit and an IL-17F subunit; also called huIL-17A/F; rhuIL-17A/F
T5 sequence (looked up) 1: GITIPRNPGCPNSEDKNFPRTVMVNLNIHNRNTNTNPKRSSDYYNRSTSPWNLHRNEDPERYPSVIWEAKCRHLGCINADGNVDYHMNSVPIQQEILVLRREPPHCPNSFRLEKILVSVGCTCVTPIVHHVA
T5 sequence (looked up) 2: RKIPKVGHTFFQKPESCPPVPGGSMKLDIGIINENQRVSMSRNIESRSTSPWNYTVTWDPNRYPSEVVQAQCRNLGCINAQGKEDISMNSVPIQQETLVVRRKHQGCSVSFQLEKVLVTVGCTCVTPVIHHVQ

T6: recombinant human IL-17A (SEQ ID NO: 76) (human, UniProt Q16552 24-155, limits assumed)
T6 construct: homodimer; also called huIL-17A; rhuIL-17A
T6 sequence: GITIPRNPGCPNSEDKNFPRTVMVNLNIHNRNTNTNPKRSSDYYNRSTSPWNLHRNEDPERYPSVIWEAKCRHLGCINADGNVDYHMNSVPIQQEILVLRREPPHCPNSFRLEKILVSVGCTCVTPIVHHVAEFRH

T7: recombinant rat IL-17A (SEQ ID NO: 85) (rat, UniProt Q61453 18-150)
T7 sequence: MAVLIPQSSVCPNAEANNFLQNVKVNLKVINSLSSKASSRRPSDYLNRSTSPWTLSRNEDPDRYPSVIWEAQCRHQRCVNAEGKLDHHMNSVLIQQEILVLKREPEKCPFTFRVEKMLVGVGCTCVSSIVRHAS

T8: recombinant mouse IL-17F (SEQ ID NO: 84) (mouse, UniProt Q7TNI7 29-161)
T8 sequence: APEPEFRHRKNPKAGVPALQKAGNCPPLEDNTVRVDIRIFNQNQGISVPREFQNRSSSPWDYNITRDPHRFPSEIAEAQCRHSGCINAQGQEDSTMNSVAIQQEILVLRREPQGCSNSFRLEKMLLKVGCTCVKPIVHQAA

T9: recombinant mouse IL-17A/F (R&D Systems Cat#5390-IL) (mouse, UniProt Q62386 26-158; Q7TNI7 29-161, limits assumed)
T9 sequence (looked up) 1: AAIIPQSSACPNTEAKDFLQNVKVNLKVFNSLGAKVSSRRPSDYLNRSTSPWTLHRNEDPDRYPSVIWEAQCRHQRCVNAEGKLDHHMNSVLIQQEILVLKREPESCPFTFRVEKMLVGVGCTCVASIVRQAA
T9 sequence (looked up) 2: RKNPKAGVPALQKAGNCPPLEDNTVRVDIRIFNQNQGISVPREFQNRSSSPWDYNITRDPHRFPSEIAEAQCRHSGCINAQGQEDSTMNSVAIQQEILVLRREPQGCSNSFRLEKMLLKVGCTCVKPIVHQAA


Assays:
[1] = target: T1, recombinant mouse IL-6 (R&D Systems …); experiment: ELISA, coated cytokine, Ab 10 µg/ml
Protocol: (§1) The antibodies of the disclosure were added at 10 μg/ml (100 μl/well) for 3 h at room temperature. […] They were added at 1 or 5 μg/ml, in PBS, 0.02% NaN₃ for 3 h at RT.
(§2) Plates were then washed 4 times with PBS/0.05% Tween 20/0.02% NaN₃. Then, an alkaline phosphatase-conjugated goat anti-human IgG antibody (Sigma Cat# A9544) was added to the wells with human antibodies at a dilution of 1/20000 (100 μl/well). An alkaline phosphatase-conjugated goat anti-mouse IgG antibody (Sigma Cat# A1047) was added to the wells with mouse antibodies at a dilution of 1/10000 (100 μl/well). An alkaline phosphatase-conjugated rabbit anti-goat IgG antibody (Sigma Cat# A7650) was added to the wells with goat antibodies at a dilution of 1/1000 (100 μl/well) and an alkaline phosphatase-conjugated rabbit anti rat-IgG antibody (Sigma Cat# A6066) was added to the wells with rat antibodies at a dilution of 1/20000 (100 μl/well).

[2] = target: T2, recombinant mouse IL-12 (R&D Systems …); experiment: ELISA, coated cytokine, Ab 10 µg/ml
Protocol: as §1, §2

[3] = target: T3, recombinant human IL-17E (R&D Systems …); experiment: ELISA, coated antigen, Ab 1 µg/ml
Protocol: (§3) A titration of the antibodies of interest on different antigens was carried out.
(§4) Plates were then washed 4 times with PBS/0.05% Tween 20 (Sigma Cat# P7949)/0.02% NaN₃.
(§5) Plates were then washed 4 times with PBS/0.05% Tween 20/0.02% NaN₃. Then, an alkaline phosphatase-conjugated goat anti-human IgG antibody (Sigma Cat# A9544) was added to the wells that received test antibody at a dilution of 1/20000 (100 μl/well) for 2 h 30 min at RT. To the wells, that received mouse mAb, an alkaline phosphatase-conjugated goat anti-mouse IgG antibody (Sigma Cat# A7434) was added at a dilution of 1/10000 (100 μl/well) for 2 h 30 min at RT. An alkaline phosphatase conjugated mouse anti goat IgG antibody (Sigma Cat# A8062) was added to the goat antibodies at a dilution of 1/50000 (100 μl/well) for 2 h 30 min at RT. Plates were then washed 4 times and 100 μl of the substrate (p-nitrophenyl phosphate tablets; Sigma; 5 mg Cat#N9389; 20 mg Cat#. N2765) dissolved in diethanolamine buffer pH 9.8, to give a final concentration of 1 mg/ml, were added to each well.

[4] = target: T4, recombinant mouse IL-17A (SEQ ID NO: 83); experiment: ELISA, coated antigen, Ab 1 µg/ml
Protocol: as §3, §4, §5

[5] = target: T5, recombinant human IL-17A/F heterodimer; experiment: ELISA, coated antigen, Ab 1 µg/ml
Protocol: as §3, §4, §5

[6] = target: T6, recombinant human IL-17A (SEQ ID NO: 76); experiment: ELISA, coated antigen, Ab 1 µg/ml
Protocol: as §3, §4, §5

[7] = target: T7, recombinant rat IL-17A (SEQ ID NO: 85); experiment: cell-based or functional assay
[8] = target: T8, recombinant mouse IL-17F (SEQ ID NO: 84); experiment: cell-based or functional assay
[9] = target: T4, recombinant mouse IL-17A (SEQ ID NO: 83); experiment: cell-based or functional assay
[10] = target: T9, recombinant mouse IL-17A/F (R&D Systems …); experiment: cell-based or functional assay

Row | Binder | O.D. [1] [O.D.] | O.D. [2] [O.D.] | O.D. [3] [O.D.] | O.D. [4] [O.D.] | O.D. [5] [O.D.] | O.D. [6] [O.D.] | IC50, mouse KC secretion by CMT-93 cells; stimulus rIL-17A (1 nM) [7] [nM] | IC50, mouse KC secretion by CMT-93 cells; stimulus mIL-17F (30 nM) [8] [nM] | IC50, mouse KC secretion by CMT-93 cells; stimulus mIL-17A (1 nM) [9] [nM] | IC50, mouse KC secretion by CMT-93 cells; stimulus mIL-17A/F (3 nM) [10] [nM]
1 | XAB4 (antibody, human IgG1, kappa, V domains shown, also called MB435 N56Q) VH: EVQLVESGGDLVQPGGSLRLSCAASGFTFSSYWMSWVRQAPGKGLEWVANIKQDGSEKYYVDSVKGRFTISRDNAKNSLYLQMNSLRAEDTAVYYCARDRGSLYYWGQGTLVTVSS VL: AIQLTQSPSSLSASVGDRVTITCRPSQGINWELAWYQQKPGKAPKLLIYDASSLEQGVPSRFSGSGSGTDFTLTISSLQPEDFATYYCQQFNSYPLTFGGGTKVEIKR | 0.031 | 0.035 | 0.035 | 1.58 | 2.14 | 2.47 | 6.7 | > 10000 | 13.8 | 10.3
2 | XAB1 (antibody, human IgG1, kappa, V domains shown, human IgG1/kappa monoclonal antibody; also called parental XAB1; XAB1 IgG) VH: EVQLVESGGDLVQPGGSLRLSCAASGFTFSSYWMSWVRQAPGKGLEWVANIKQDGSEKYYVDSVKGRFTISRDNAKNSLYLQMNSLRAEDTAVYYCARDRGSLYYWGQGTLVTVSS VL: AIQLTQSPSSLSASVGDRVTITCRPSQGIISALAWYQQKPGKAPKLLIYDASSLENGVPSRFSGSGSGTDFTLTISSLQPEDFATYYCQQFNSYPLTFGGGTKVEIKR | 0.038 | -0.005 | 0.033 | 1.44 | 1.22 | 1.3 | 467 | > 10000 | 539 | > 1000

Source: patent publication US20180194839A1 (Novartis, published 2018)
